One block for each binder: values may come before it.
Tests used:
[1] = molecular target: T1, Recombinant human IL-1beta (rhIL-1b) (human, UniProt P01584 117-269); assay: KinExA, dual curve analysis
T1 construct: R&D Systems Cat. No. 201-LB/CF; also called IL-1β; human IL-1β

[2] = molecular target: T1, Recombinant human IL-1beta (rhIL-1b); assay: KinExA, single KD-controlled titration
[3] = molecular target: T1, Recombinant human IL-1beta (rhIL-1b); assay: Biacore, Medium Resolution; IL-1β in solution; medium-resolution Biacore
[4] = molecular target: T2, IL-1β R11A mutant (human, UniProt P01584 117-269); assay: binding to site-directed IL-1β mutant; X = abrogation of binding
T2 construct: site-directed mutant

[5] = molecular target: T3, IL-1β R4A mutant (human, UniProt P01584 117-269); assay: as above
T3 construct: site-directed mutant

[6] = molecular target: T1, Recombinant human IL-1beta (rhIL-1b); assay: cell-based or functional assay
[7] = molecular target: T1, Recombinant human IL-1beta (rhIL-1b); assay: Biacore low-res, mAb captured, 25C; IL-1β in solution (118 nM) over captured mAb; low-resolution Biacore, 25 C
[8] = molecular target: T1, Recombinant human IL-1beta (rhIL-1b); assay: cell-based or functional assay; remark: listed apart in the source
[9] = molecular target: T4, IL-1β H30A mutant (human, UniProt P01584 117-269); assay: binding to site-directed IL-1β mutants
T4 construct: site-directed mutant

[10] = molecular target: T1, Recombinant human IL-1beta (rhIL-1b); assay: Biacore, Low Resolution screen
[11] = molecular target: T1, Recombinant human IL-1beta (rhIL-1b); assay: Biacore high-res, mAb amine-coupled, 23C
[12] = molecular target: T1, Recombinant human IL-1beta (rhIL-1b); assay: cell-based or functional assay; remark: listed apart in the source
[13] = molecular target: T1, Recombinant human IL-1beta (rhIL-1b); assay: cell-based or functional assay; remark: listed apart in the source
[14] = molecular target: T1, Recombinant human IL-1beta (rhIL-1b); assay: KinExA, triple curve analysis

- Kd [1]: 0.02 nM
- Kd [2]: 19 pM
- Kd [3]: 0.18 nM
- koff [3]: 0.00057 s⁻¹
- kon [3]: 3.1e+06 M⁻¹ s⁻¹
- binding result [4]: no binding
- binding result [5]: no binding
- EC50, inhibition of IL-1β-induced IL-6 production in MRC-5 cells [6]: 216 pM
- Kd [7]: 0.278 nM
- koff [7]: 0.0005 s⁻¹
- kon [7]: 1.8e+06 M⁻¹ s⁻¹
- % IL-6 production, supernatant 1:5 dilut. [8]: 1%
- % IL-6 production, supernatant 1:10 dilut. [8]: 3%
- % IL-6 production, supernatant 1:20 dilut. [8]: 6%
- binding result [9]: binds
- Kd [10]: 0.278 nM
- Kd [11]: 0.0447 nM
- koff [11]: 0.000704 s⁻¹
- kon [11]: 1.57e+07 M⁻¹ s⁻¹
- In Vivo Potency EC50, inhibition of IL-6 induced in mice by human IL-1β [12]: 51 pmoles/mouse
- EC50, inhibition of IL-1β-induced IL-8 production in human whole blood [13]: 1.67 nM
B1: 5.5.1 (antibody, IgG4, V domains shown)
VH: QVQLVESGGGVVQPGRSLRLSCAASGFTFSSYGMHWVRQAPGKGLEWVAVIWYDGDNKYYADSVQGRFTISRDNSKNTLYLQMNSLRPEDTAVYYCARERSSSWYFDYWGQGTLVTVSS
VL: QSALTQPASVSGSPGQSITISCTGTSSDVGSYNLVSWYQQHPGKAPKLMIYEVSKRPSGISNRFSGSKSGNTASLTISGLQAEDEADYYCCSYAGSSTWVFGGGTKLTVL
notes: lambda; also called mAb 5.5.1; Ab 5.5.1

- Kd [2]: 0.041 pM
- Kd [14]: 0.204 pM
- EC50, inhibition of IL-1β-induced IL-6 production in MRC-5 cells [6]: 4 pM
- In Vivo Potency EC50, inhibition of IL-6 induced in mice by human IL-1β [12]: 8 pmoles/mouse
- EC50, inhibition of IL-1β-induced IL-8 production in human whole blood [13]: 0.069 nM
B2: 9.5.2 IgG2 (antibody, V domains shown)
VH: EVQLVESGGGLVKPGRSLRLSCTGSGFTFGDYALNWFRQAPGMGLEWVGFIRGKAYGGTTEYAASVKGRFTISRDDSKSIAYLQMNSLKTEDTAVYYCNREVEYCRSSENYCYGMDVWGQGTTVTVS
VL: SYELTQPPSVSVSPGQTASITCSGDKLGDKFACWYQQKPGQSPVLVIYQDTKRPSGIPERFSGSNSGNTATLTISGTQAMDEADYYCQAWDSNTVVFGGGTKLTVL
notes: also called mAb 9.5.2 (IgG2 isotype); 9.5.2 IgG2λ

- EC50, inhibition of IL-1β-induced IL-6 production in MRC-5 cells [6]: 1 pM
- In Vivo Potency EC50, inhibition of IL-6 induced in mice by human IL-1β [12]: 5 pmoles/mouse
- EC50, inhibition of IL-1β-induced IL-8 production in human whole blood [13]: 0.106 nM
B3: 9.5.2 IgG1 (antibody, V domains shown)
VH: B2 VH
VL: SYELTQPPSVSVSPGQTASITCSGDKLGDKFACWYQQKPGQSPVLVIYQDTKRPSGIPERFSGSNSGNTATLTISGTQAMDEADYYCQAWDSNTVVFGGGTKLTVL

— US20070065439A1 (Amgen, published 2007)
